Test results published in the supplement of paper PMC5998384.

Columns and labels:
HeLa Kyoto [1] = assay: solubility change mitosis vs G1/S (difference of NP-40 vs SDS log2 ratios) (log2 ratio difference); higher = more soluble in mitosis
HeLa Kyoto [2] = assay: solubility in G1/S (NP-40 vs SDS abundance) (log2 ratio); higher = more soluble; conditions: cell cycle stage: G1/S
HeLa Kyoto [3] = assay: melting temperature (median over replicates), in situ; higher = more thermally stable
HeLa Kyoto [4] = assay: thermal stability score vs G1/S (z-score of summed log2 fold changes over temperatures); higher = more thermally stable than in G1/S
[5] = cell cycle stage: early G1 (4.5 h after nocodazole release)
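Throughout, for melting temperature (median over replicates), in situ: HeLa Kyoto cells synchronized by double thymidine or nocodazole block, proteins quantified by TMT10plex mass spectrometry, three independent biological replicates.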
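Throughout, for solubility change mitosis vs G1/S (difference of NP-40 vs SDS log2 ratios): synchronized HeLa Kyoto cells (double thymidine block for G1/S, nocodazole release for mitosis), protein amounts in NP-40 versus SDS lysates quantified by mass spectrometry, three biological replicates.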
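Throughout, for solubility in G1/S (NP-40 vs SDS abundance): HeLa Kyoto cells arrested at G1/S by double thymidine block, proteins quantified by TMT10plex mass spectrometry in mild NP-40 versus SDS extracts, three biological replicates.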
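Throughout, for thermal stability score vs G1/S (z-score of summed log2 fold changes over temperatures): synchronized HeLa Kyoto cells, proteins quantified by TMT10plex mass spectrometry, three biological replicates, mitosis taken 0.5 h after nocodazole release, G1/S directly after double thymidine block.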

Sequence	solubility change mitosis (log2) (HeLa Kyoto [1])	solubility in G1/S (log2) (HeLa Kyoto [2])	melting temperature (HeLa Kyoto [3]; cell cycle stage: G1/S) [°C]	melting temperature (HeLa Kyoto [3]; cell cycle stage: mitosis) [°C]	thermal stability score (HeLa Kyoto [4]; [5])	thermal stability score (HeLa Kyoto [4]; cell cycle stage: mitosis)
MTAEEMKATESGAQSAPLPMEGVDISPKQDEGVLKVIKREGTGTEMPMIGDRVFVHYTGWLLDGTKFDSSLDRKDKFSFDLGKGEVIKAWDIAIATMKVGEVCHITCKPEYAYGSAGSPPKIPPNATLVFEVELFEFKGEDLTEEEDGGIIRRIQTRGEGYAKPNEGAIVEVALEGYYKDKLFDQRELRFEIGEGENLDLPYGLERAIQRMEKGEHSIVYLKPSYAFGSVGKEKFQIPPNAELKYELHLKSFEKAKESWEMNSEEKLEQSTIVKERGTVYFKEGKYKQALLQYKKIVSWLEYESSFSNEEAQKAQALRLASHLNLAMCHLKLQAFSAAIESCNKALELDSNNEKGLFRRGEAHLAVNDFELARADFQKVLQLYPNNKAAKTQLAVCQQRIRRQLAREKKLYANMFERLAEEENKAKAEASSGDHPTDTEMKEEQKSNTAGSQSQVETEA [FKBP4]	-0.129	0.197	50	50.1	1.07	1.03
MTANRDAALSSHRHPGCAQRPRTPTFASSSQRRSAFGFDDGNFPGLGERSHAPGSRLGARRRAKTARGLRGHRQRGAGAGLSRPGSARAPSPPRPGGPENPGGVLSVELPGLLAQLARSFALLLPVYALGYLGLSFSWVLLALALLAWCRRSRGLKALRLCRALALLEDEERVVRLGVRACDLPAWVHFPDTERAEWLNKTVKHMWPFICQFIEKLFRETIEPAVRGANTHLSTFSFTKVDVGQQPLRINGVKVYTENVDKRQIILDLQISFVGNCEIDLEIKRYFCRAGVKSIQIHGTMRVILEPLIGDMPLVGALSIFFLRKPLLEINWTGLTNLLDVPGLNGLSDTIILDIISNYLVLPNRITVPLVSEVQIAQLRFPVPKGVLRIHFIEAQDLQGKDTYLKGLVKGKSDPYGIIRVGNQIFQSRVIKENLSPKWNEVYEALVYEHPGQELEIELFDEDPDKDDFLGSLMIDLIEVEKERLLDEWFTLDEVPKGKLHLRLEWLTLMPNASNLDKVLTDIKADKDQANDGLSSALLILYLDSARNLPSGKKISSNPNPVVQMSVGHKAQESKIRYKTNEPVWEENFTFFIHNPKRQDLEVEVRDEQHQCSLGNLKVPLSQLLTSEDMTVSQRFQLSNSGPNSTIKMKIALRVLHLEKRERPPDHQHSAQVKRPSVSKEGRKTSIKSHMSGSPGPGGSNTAPSTPVIGGSDKPGMEEKAQPPEAGPQGLHDLGRSSSSLLASPGHISVKEPTPSIASDISLPIATQELRQRLRQLENGTTLGQSPLGQIQLTIRHSSQRNKLIVVVHACRNLIAFSEDGSDPYVRMYLLPDKRRSGRRKTHVSKKTLNPVFDQSFDFSVSLPEVQRRTLDVAVKNSGGFLSKDKGLLGKVLVALASEELAKGWTQWYDLTEDGTRPQAMT [ESYT2]	-0.0587	-0.095	51.2	51.5	0.682	0.876
MTAVHAGNINFKWDPKSLEIRTLAVERLLEPLVTQVTTLVNTNSKGPSNKKRGRSKKAHVLAASVEQATENFLEKGDKIAKESQFLKEELVAAVEDVRKQGDLMKAAAGEFADDPCSSVKRGNMVRAARALLSAVTRLLILADMADVYKLLVQLKVVEDGILKLRNAGNEQDLGIQYKALKPEVDKLNIMAAKRQQELKDVGHRDQMAAARGILQKNVPILYTASQACLQHPDVAAYKANRDLIYKQLQQAVTGISNAAQATASDDASQHQGGGGGELAYALNNFDKQIIVDPLSFSEERFRPSLEERLESIISGAALMADSSCTRDDRRERIVAECNAVRQALQDLLSEYMGNAGRKERSDALNSAIDKMTKKTRDLRRQLRKAVMDHVSDSFLETNVPLLVLIEAAKNGNEKEVKEYAQVFREHANKLIEVANLACSISNNEEGVKLVRMSASQLEALCPQVINAALALAAKPQSKLAQENMDLFKEQWEKQVRVLTDAVDDITSIDDFLAVSENHILEDVNKCVIALQEKDVDGLDRTAGAIRGRAARVIHVVTSEMDNYEPGVYTEKVLEATKLLSNTVMPRFTEQVEAAVEALSSDPAQPMDENEFIDASRLVYDGIRDIRKAVLMIRTPEELDDSDFETEDFDVRSRTSVQTEDDQLIAGQSARAIMAQLPQEQKAKIAEQVASFQEEKSKLDAEVSKWDDSGNDIIVLAKQMCMIMMEMTDFTRGKGPLKNTSDVISAAKKIAEAGSRMDKLGRTIADHCPDSACKQDLLAYLQRIALYCHQLNICSKVKAEVQNLGGELVVSGVDSAMSLIQAAKNLMNAVVQTVKASYVASTKYQKSQGMASLNLPAVSWKMKAPEKKPLVKREKQDETQTKIKRASQKKHVNPVQALSEFKAMDSI [CTNNA1]	-0.0404	0.402	52.6	52.2	-0.182	-0.645
MTDDKDVLRDVWFGRIPTCFTLYQDEITEREAEPYYLLLPRVSYLTLVTDKVKKHFQKVMRQEDISEIWFEYEGTPLKWHYPIGLLFDLLASSSALPWNITVHFKSFPEKDLLHCPSKDAIEAHFMSCMKEADALKHKSQVINEMQKKDHKQLWMGLQNDRFDQFWAINRKLMEYPAEENGFRYIPFRIYQTTTERPFIQKLFRPVAADGQLHTLGDLLKEVCPSAIDPEDGEKKNQVMIHGIEPMLETPLQWLSEHLSYPDNFLHISIIPQPTD [ATG5]	0.0407	0.406	54.2	53.6	-0.587	0.0242
MTDGDYDYLIKLLALGDSGVGKTTFLYRYTDNKFNPKFITTVGIDFREKRVVYNAQGPNGSSGKAFKVHLQLWDTAGQERFRSLTTAFFRDAMGFLLMFDLTSQQSFLNVRNWMSQLQANAYCENPDIVLIGNKADLPDQREVNERQARELADKYGIPYFETSAATGQNVEKAVETLLDLIMKRMEQCVEKTQIPDTVNGGNSGNLDGEKPPEKKCIC [RAB27B]	-0.0223	0.00344	55.7	59.9	-1.38	-2.39
MTDSKYFTTTKKGEIFELKAELNSDKKEKKKEAVKKVIASMTVGKDVSALFPDVVNCMQTDNLELKKLVYLYLMNYAKSQPDMAIMAVNTFVKDCEDPNPLIRALAVRTMGCIRVDKITEYLCEPLRKCLKDEDPYVRKTAAVCVAKLHDINAQLVEDQGFLDTLKDLISDSNPMVVANAVAALSEIAESHPSSNLLDLNPQSINKLLTALNECTEWGQIFILDCLANYMPKDDREAQSICERVTPRLSHANSAVVLSAVKVLMKFMEMLSKDLDYYGTLLKKLAPPLVTLLSAEPELQYVALRNINLIVQKRPEILKHEMKVFFVKYNDPIYVKLEKLDIMIRLASQANIAQVLAELKEYATEVDVDFVRKAVRAIGRCAIKVEQSAERCVSTLLDLIQTKVNYVVQEAIVVIKDIFRKYPNKYESVIATLCENLDSLDEPEARAAMIWIVGEYAERIDNADELLESFLEGFHDESTQVQLQLLTAIVKLFLKKPTETQELVQQVLSLATQDSDNPDLRDRGYIYWRLLSTDPVAAKEVVLAEKPLISEETDLIEPTLLDELICYIGTLASVYHKPPSAFVEGGRGVVHKSLPPRTASSESAESPETAPTGAPPGEQPDVIPAQGDLLGDLLNLDLGPPVSGPPLATSSVQMGAVDLLGGGLDSLMGDEPEGIGGTNFVAPPTAAVPANLGAPIGSGLSDLFDLTSGVGTLSGSYVAPKAVWLPAMKAKGLEISGTFTRQVGSISMDLQLTNKALQVMTDFAIQFNRNSFGLAPAAPLQVHAPLSPNQTVEISLPLSTVGSVMKMEPLNNLQVAVKNNIDVFYFSTLYPLHILFVEDGKMDRQMFLATWKDIPNENEAQFQIRDCPLNAEAASSKLQSSNIFTVAKRNVEGQDMLYQSLKLTNGIWVLAELRIQPGNPSCTDLELSLKCRAPEVSQHVYQAYETILKN [AP1B1]	-0.225	0.297	51.7	51.1	-0.616	0.595
MTDYGEEQRNELEALESIYPDSFTVLSENPPSFTITVTSEAGENDETVQTTLKFTYSEKYPDEAPLYEIFSQENLEDNDVSDILKLLALQAEENLGMVMIFTLVTAVQEKLNEIVDQIKTRREEEKKQKEKEAEEAEKQLFHGTPVTIENFLNWKAKFDAELLEIKKKRMKEEEQAGKNKLSGKQLFETDHNLDTSDIQFLEDAGNNVEVDESLFQEMDDLELEDDEDDPDYNPADPESDSAD [RWDD1]	0.0192	0.348	52.7	54	0.855	0.947
MTELETAMGMIIDVFSRYSGSEGSTQTLTKGELKVLMEKELPGFLQSGKDKDAVDKLLKDLDANGDAQVDFSEFIVFVAAITSACHKYFEKAGLK [S100P]	0.32	-0.525	54.1	51	-0.94	-5.53
